This is an account of results in the supplement of paper PMC9112550, “Optimization of the antimicrobial peptide Bac7 by deep mutational scanning” (BMC Biology, 2022).

The data set deals with Escherichia coli TOP10. Briefly: shrunken log2 fold change of peptide-encoding DNA abundance (4.5 h post-induction vs induction); higher = less antimicrobial activity (less host growth inhibition). Conditions: time post-induction: 4.5 h; library: site-saturation at positions 5, 18, 19, 20.
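Further: peptides expressed intracellularly from a pBAD plasmid library in pooled LB shake-flask culture, induced with 0.3% L-arabinose, DNA abundance read by NGS, three biological replicates, DESeq2 with apeglm shrinkage.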

Turning to RRIRYRPPRLPRPRPRPTLQPRP, the “shrunken log2 fold change” value is 0.201.
Consider RRIRSRPPRLPRPRPRPPMEPRP, for which the “shrunken log2 fold change” value is -0.117.
The value for RRIRRRPPRLPRPRPRPWFLPRP was -0.19; that for RRIRLRPPRLPRPRPRPTPSPRP was 0.552; that for RRIRWRPPRLPRPRPRPSHSPRP was -0.0913.
To RRIRPRPPRLPRPRPRPFMRPRP belongs -0.1; to RRIRFRPPRLPRPRPRPLVNPRP, -0.0651; to RRIRVRPPRLPRPRPRPIWWPRP, 1.44.
The value for RRIRRRPPRLPRPRPRPSVHPRP was -0.278.
RRIRGRPPRLPRPRPRPCATPRP: the “shrunken log2 fold change” value was 2.7.
To RRIRTRPPRLPRPRPRPICRPRP belongs 0.0229; to RRIRIRPPRLPRPRPRPEKLPRP, -0.048; to RRIRGRPPRLPRPRPRPRKSPRP, 0.326.
To RRIRMRPPRLPRPRPRPHTFPRP belongs -0.384; to RRIRRRPPRLPRPRPRPGLEPRP, 0.472.
The value for RRIRGRPPRLPRPRPRPLTDPRP was 0.284; that for RRIRWRPPRLPRPRPRPVGVPRP was 0.297; that for RRIRCRPPRLPRPRPRPIQPPRP was -0.137.
Turning to RRIRQRPPRLPRPRPRPYILPRP, the “shrunken log2 fold change” value was -0.773.
On to RRIRSRPPRLPRPRPRPKWNPRP, for which the “shrunken log2 fold change” value was -0.154.
RRIRWRPPRLPRPRPRPHNFPRP: the “shrunken log2 fold change” value was -0.0122.
The value for RRIRDRPPRLPRPRPRPTNNPRP was 0.0553.
For the sequence RRIRTRPPRLPRPRPRPYSSPRP, the “shrunken log2 fold change” value is 0.00157.
With RRIRMRPPRLPRPRPRPVNIPRP, the “shrunken log2 fold change” value is -0.361.
On to RRIRSRPPRLPRPRPRPQMIPRP, for which the “shrunken log2 fold change” value was -0.292.
To RRIRERPPRLPRPRPRPIIVPRP belongs -0.149; to RRIRYRPPRLPRPRPRPENFPRP, 0.00911; to RRIRARPPRLPRPRPRPLFYPRP, -0.312.
The value for RRIRFRPPRLPRPRPRPLVRPRP was -0.102; that for RRIRARPPRLPRPRPRPMINPRP was -0.0176; that for RRIRTRPPRLPRPRPRPPRDPRP was 0.4.
To RRIRLRPPRLPRPRPRPEMLPRP belongs -0.108; to RRIRHRPPRLPRPRPRPEPHPRP, 0.113.
As to RRIRIRPPRLPRPRPRPVKIPRP, the “shrunken log2 fold change” value is 0.0113.
To RRIRARPPRLPRPRPRPVYHPRP belongs -0.321; to RRIRFRPPRLPRPRPRPDIHPRP, -0.268.
Consider RRIRTRPPRLPRPRPRPARHPRP, for which the “shrunken log2 fold change” value turned out to be 0.189.
For the sequence RRIRWRPPRLPRPRPRPCEMPRP, the “shrunken log2 fold change” value was found to be 0.0732.
The value for RRIRERPPRLPRPRPRPVECPRP was -0.152; that for RRIRGRPPRLPRPRPRPGFFPRP was 0.542.
The value for RRIRTRPPRLPRPRPRPCYLPRP was -0.468; that for RRIRDRPPRLPRPRPRPTDPPRP was 0.0862.
For RRIRYRPPRLPRPRPRPEREPRP, the “shrunken log2 fold change” value is -0.0221.
To RRIRRRPPRLPRPRPRPKGHPRP belongs 0.127; to RRIRWRPPRLPRPRPRPFPKPRP, 0.0146; to RRIRGRPPRLPRPRPRPTSLPRP, 0.542.
Take RRIRCRPPRLPRPRPRPKSQPRP: the “shrunken log2 fold change” value turned out to be 0.276.
The value for RRIRIRPPRLPRPRPRPPGEPRP was 0.0604.
RRIRFRPPRLPRPRPRPRPYPRP: the “shrunken log2 fold change” value was -0.175.
With RRIRDRPPRLPRPRPRPWAQPRP, the “shrunken log2 fold change” value is 0.18.
On to RRIRARPPRLPRPRPRPYIIPRP, for which the “shrunken log2 fold change” value is -0.445.
To RRIRGRPPRLPRPRPRPPGMPRP belongs 0.989; to RRIRKRPPRLPRPRPRPDDTPRP, 2.31; to RRIRFRPPRLPRPRPRPETTPRP, 0.533.
For the sequence RRIRGRPPRLPRPRPRPCLTPRP, the “shrunken log2 fold change” value amounted to 0.496.
For the sequence RRIRARPPRLPRPRPRPLFGPRP, the “shrunken log2 fold change” value turned out to be 0.235.
The value for RRIRARPPRLPRPRPRPQIHPRP was -0.0277; that for RRIRCRPPRLPRPRPRPGVMPRP was 0.0691; that for RRIRPRPPRLPRPRPRPGDHPRP was -0.013.
To RRIRVRPPRLPRPRPRPPYRPRP belongs -0.0303; to RRIRERPPRLPRPRPRPTTIPRP, -0.627.
For the sequence RRIRNRPPRLPRPRPRPTCSPRP, the “shrunken log2 fold change” value is -0.261.
For RRIRIRPPRLPRPRPRPTTYPRP, the “shrunken log2 fold change” value is -0.868.
RRIRGRPPRLPRPRPRPGREPRP: the “shrunken log2 fold change” value is 0.217.
Take RRIRKRPPRLPRPRPRPMCTPRP: the “shrunken log2 fold change” value was -0.0805.
On to RRIRERPPRLPRPRPRPVGFPRP, for which the “shrunken log2 fold change” value is 0.0681.
Take RRIRARPPRLPRPRPRPFYYPRP: the “shrunken log2 fold change” value is -0.485.
In the case of RRIRDRPPRLPRPRPRPLQLPRP, the “shrunken log2 fold change” value is -0.0775.
To RRIRTRPPRLPRPRPRPPLGPRP belongs 0.328; to RRIRKRPPRLPRPRPRPTKMPRP, 0.229; to RRIRYRPPRLPRPRPRPSCRPRP, -0.6.
To RRIRTRPPRLPRPRPRPGQKPRP belongs 0.0923.
Turning to RRIRYRPPRLPRPRPRPCRVPRP, the “shrunken log2 fold change” value is 0.00293.
Take RRIRHRPPRLPRPRPRPYDCPRP: the “shrunken log2 fold change” value is -0.0596.
To RRIRSRPPRLPRPRPRPAWYPRP belongs -0.3.
Turning to RRIRGRPPRLPRPRPRPEQHPRP, the “shrunken log2 fold change” value was 0.66.
With RRIRKRPPRLPRPRPRPWYDPRP, the “shrunken log2 fold change” value is -0.153.
With RRIRNRPPRLPRPRPRPLDLPRP, the “shrunken log2 fold change” value came to 0.00897.
As for RRIRDRPPRLPRPRPRPHIRPRP, the “shrunken log2 fold change” value was 0.00704.
RRIRHRPPRLPRPRPRPVYRPRP: the “shrunken log2 fold change” value is -0.305.
The value for RRIRCRPPRLPRPRPRPPTDPRP was 0.298; that for RRIRDRPPRLPRPRPRPPHSPRP was 0.279; that for RRIRARPPRLPRPRPRPWCGPRP was 0.0572.
As to RRIRDRPPRLPRPRPRPNWRPRP, the “shrunken log2 fold change” value stood at 0.46.
The value for RRIRQRPPRLPRPRPRPLREPRP was 1.44; that for RRIRQRPPRLPRPRPRPEILPRP was 0.00769; that for RRIRQRPPRLPRPRPRPQVNPRP was -0.499.
On to RRIRTRPPRLPRPRPRPVDKPRP, for which the “shrunken log2 fold change” value was -0.362.
The value for RRIRYRPPRLPRPRPRPRNVPRP was -0.324; that for RRIRCRPPRLPRPRPRPNFHPRP was -0.259; that for RRIRWRPPRLPRPRPRPKTHPRP was 0.293.
RRIRFRPPRLPRPRPRPLKCPRP: the “shrunken log2 fold change” value is -0.189.
The value for RRIRFRPPRLPRPRPRPQQYPRP was -0.552.
The value for RRIRMRPPRLPRPRPRPKPTPRP was 0.266; that for RRIRWRPPRLPRPRPRPVQKPRP was 0.0836; that for RRIRWRPPRLPRPRPRPFMNPRP was -0.11.
To RRIRGRPPRLPRPRPRPQYYPRP belongs -0.399; to RRIRSRPPRLPRPRPRPWCDPRP, -0.238; to RRIRPRPPRLPRPRPRPYSKPRP, -0.868.
In the case of RRIRNRPPRLPRPRPRPHWIPRP, the “shrunken log2 fold change” value was -0.322.
To RRIRTRPPRLPRPRPRPHYPPRP belongs -0.782.
The value for RRIRDRPPRLPRPRPRPKRYPRP was -0.236.
With RRIRWRPPRLPRPRPRPGTHPRP, the “shrunken log2 fold change” value amounted to 0.158.
On to RRIRNRPPRLPRPRPRPSCTPRP, for which the “shrunken log2 fold change” value was -0.34.
The value for RRIRFRPPRLPRPRPRPQHLPRP was -1.22; that for RRIRWRPPRLPRPRPRPHVAPRP was 0.181.
The value for RRIRWRPPRLPRPRPRPCWCPRP was -0.215; that for RRIRWRPPRLPRPRPRPVKQPRP was -0.092; that for RRIRERPPRLPRPRPRPYNKPRP was -1.11.
On to RRIRKRPPRLPRPRPRPCPSPRP, for which the “shrunken log2 fold change” value is -0.0812.
To RRIRWRPPRLPRPRPRPKISPRP belongs 0.177; to RRIRLRPPRLPRPRPRPDELPRP, 0.00705; to RRIRVRPPRLPRPRPRPGIPPRP, -0.103.
RRIRIRPPRLPRPRPRPWMDPRP: the “shrunken log2 fold change” value came to 0.0312.
Regarding RRIRPRPPRLPRPRPRPGTLPRP, the “shrunken log2 fold change” value was 0.0426.
Consider RRIRYRPPRLPRPRPRPFFCPRP, for which the “shrunken log2 fold change” value is -0.644.
To RRIRCRPPRLPRPRPRPKYPPRP belongs -0.196.
The value for RRIRERPPRLPRPRPRPRDMPRP was 0.0375; that for RRIRIRPPRLPRPRPRPMCMPRP was -0.216.
For the sequence RRIRTRPPRLPRPRPRPCVCPRP, the “shrunken log2 fold change” value is -0.206.
The value for RRIRERPPRLPRPRPRPQLEPRP was -0.0385; that for RRIRSRPPRLPRPRPRPLTQPRP was 0.243; that for RRIRPRPPRLPRPRPRPRYMPRP was -0.213.
To RRIRWRPPRLPRPRPRPLMVPRP belongs -0.0319; to RRIRDRPPRLPRPRPRPFNWPRP, 0.0464.
